# Experimental data: the nanobody polyreactivity screen of Harvey et al. (2022)
# Assay: yeast display, Sf9 membrane polyspecificity reagent, FACS + sequencing; frameworks hold sequencing errors
# How it was run: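 Galactose induction of a Saccharomyces cerevisiae BJ5465 synthetic nanobody display library ran 36–48 hours. The cells were then stained for 1 hour at 4 °C with 10% biotinylated, detergent-solubilized Sf9 membrane reagent, pulled down on streptavidin microbeads and FACS-sorted into low and high (top ~1%) gates on expression and reagent-binding fluorescence. Labels for polyreactivity follow the gate of origin.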
row,Sequence,polyreactivity (PSR sort gate)
1,QVQLVESGGGLVHAGGSLRLSCAASGFIFKRYPMGWNRPAHGKERELVAVITRSGGSTYYADSVKGRFTISRDNAKNTVYLQMNSLKPEDTAVYYCAAQGLLKFYWGQGTQVTVSS,high polyreactivity
2,QVQLVESGGGLVQAVGSLRLSCAASGRIFRYYAMGWYRQATGKESELVAAISDSSGYTYYADSVKGRFTISRDNAKNTVYLQMISLKPEDTAVYYCRDYLGSGYYYWGQGTQVTVSS,high polyreactivity
3,QLQLGESGGGLVQAGASLRLSFAPSGRLFDRYAMGWYRTAPATERELVASIRSGGSTNYADSVKGRFTISRDNAKNTGYLQMNSLNPEDTAVYYCAAVLRPVRFYSGYYYWGQGTQVTVSS,high polyreactivity
4,QVQLVESGGVLVQAGGSLRLSCAASGRIFRNYVMGWYRQAPGKEREMVAAISRSGGSTYYADSVKGRFTISRDNAKNTVYLQMNSLKPEDTAVYYCNAEYASRRVSERDYWGQGTQVTVSS,high polyreactivity
5,QVQLVESGGGLVQAGGSLRLSCAASGRTFYGNGMGWYRQAPGKDRELVAAISWSGGSTYYADSVKGRFTISRDNAKNTVYLQMNSLKPEDTAVYYCAAAYRSFIIGRWYDYWGQGTQVTVSS,low polyreactivity
6,QVQLVESGGGLVQAGGSLRLSCAASGLIFGRNVMGWYRQAPGKERELVAAISWSGGRTYYADSVKGRFTISRDNEKNTVYLQMNSLKPEDTAVYYCAAGYPYYYWTPYYYWGQGTQVTVSS,high polyreactivity
7,QAELVESGGGLVQAGGSLRLSCAASGFTFTAYAMGWYRQAPGKERELVAAISYRGGRTNYAYSVKGRFTISRDNAKNTVYLQMNSLKPEDTAVYYCAARPRISTREMDYWGQGTQVTVSS,high polyreactivity
8,QVQLVESCGGLVQAGGSLRLICAASGRTFRSYTMGWYRQAPGKERELVAAISYNCGSTYYADSVKGRFTISRDNAKNTVYLQMNSLKPEDTPVYYCAVYTIYGFYYWGQGTQVSVSS,high polyreactivity
9,QVQLVESGGGLVQAGGSLRLSCAASGGIFGLYTMGWYRQAPGKERELVAAISKTGGSTYYADSVKGRFTISRDNAKNTVYLQMNSLKPEDTAVYYCAKAGRYANLPYGYWGQGTQVTVSS,high polyreactivity
10,QVQLQESRGCLVQAGGSLRLTCAASGTISDSGLMGWYRQAPGKERELVAGISSGGITNYADSVKGRFTLSRDNAKNSVYLQMNSLKPEDTAVYWGQGTQVTVSS,low polyreactivity
11,QVQLQESGGGLVQAGGSLLSCAASGTISYYREMGSYRQAPGKERELVAGIGVGTITYYADSVKGRFTISRDNAKKTVFLQMNSLNPEDTAVYFCGDHIDGNDSHAYWGQGTQVTVSS,low polyreactivity
12,QVQLVESGGGLVQAGGSLRLSCAASGGIFSSYAMGWYRPAPGKERELVAAISSSSGSTYYADSVKGRFTISRDNAKNTVYLQMNSLKPEDTGVYYCAADSGHPDWYYYCGQGTQVTVSS,high polyreactivity
13,QVQLVESGGGLVQAGGSLRLSCAASGITFSHNAMGWYRQAPGKERELVAAITRSGGSTYYADSVKGRFTISRDNAKNTVYLQMNSLKPEDTAVYYCATEDYYRQYGYWSLSRMDHWGQGTQVTVSS,low polyreactivity
14,QVQLQESGGGLVQAGGSLRLSCAASGSISYPRTMGWYSQAPGQEREFVAGIGVGGNTYYAESVKGRFTISSDNAKNTVYLQMNSQKPEDTAVYYCNAEWYYPYYYSRMDYWGLGTQVTVSS,low polyreactivity
15,QVQLVESGGGLVQAGGSLRLSCAASGRTFSVNAMGWYRQAPGKERELVAAISWDGGSTYYADSVKGRFTISRDTAKNTVYLQMNSLKPEDTAVYYCNKDLYYAYDYWGQGTQVTVSS,low polyreactivity
16,QVQLVESGGGLVQAGGSLRLSCPASGFNFSHNAMGWYRQAPGKERELVAAITWSGAITSYADSVKGRFTISRDNAKNTVYLQMNILKPEDTAVYYCAKLWSWDLSRYGPRVDYWGQGTQVTVSS,low polyreactivity
17,QVQLVESGGGLVQAGGSLRLSCAASGFIFYAYAMGWYRPAPGKERELVAAISQRGGITYYADSVKGRFTISRDNAKNTVYLQMNRLKPEDTAVYYCNAGQRYYTSRYYYWGQGTQVTVSS,high polyreactivity
18,QVQLVESGGGLVQAGGSLRLSCAASGRTFRFYAMGWSRQAPGKERELGAAITGSGGSTYYADSVKGRFTISRDNAKNTVYLQMNCLKPEDTAVYYCAASRWREYHASKMDYWGQGTQVTVSS,low polyreactivity
19,QVQLVESGGGLVQAGGSLRLSCAASGIIFKGYAMGWYRQAPGKERELVAGITRNGGGTYYADSVKGRFTISRDNAKNTVYLQMNSLKPEDTAVYYCAARWDYSYRYRLYYWGQGTQVTVSS,high polyreactivity
20,QVQLVESGGGLVQAGASLRLICAASGSTFQGNAIGWNRQAPGKERELVAAISRSGGSTYADSVKGRFTISRDNAKNTVYLQLNSLKPEDTAVYYCAAYSGVGYLWFDYWGQGTQVTVSS,low polyreactivity
21,QVQLVESGGGLVQAGGSLRLSCAASGFTFLSYTMGWYRQAPGKERELVASITASGTRTYYADSVKGRFTISRDNAKNTVYLQMNRLKPEDTAVYYCAARRSGSGSHDYGYWGQGTQVTVSS,low polyreactivity
22,QVQLVESGGGLVQAGGSLRLSCAASGYTFGGNAMGWYRQAPGKERELVAAISSGGSTNYADSVKGRFTISRDNAKNTVYLQMNSLKPEDTAVYYCNKRGYYYWSGQDVASYDYWGQGTQVTVSS,low polyreactivity
